Among the data in patent US20210221917A1 are fold increase in binding compared to Construct 5 (SIF3) and EC50 values, retold here.

In general, EC50 refers to the concentration needed to bring the measured effect to its halfway point. The low end stands for higher potency in that assay, the high end for lower potency in that assay.

The target of assay [1] is FcyRIIb (UniProt P31994). Description: cell-based competitive TR-FRET assay (CisBio Bioassays); reference: Construct 5 (SIF3).
The target of the next assay is FcyRIIIa (UniProt P08637). Description: cell-based competitive TR-FRET. For orientation: Time-resolved FRET reads energy transfer from a long-lived donor to a nearby acceptor.
In the next assay the target is FcyRIIa (UniProt P12318). The assay is described as follows: cell-based competitive TR-FRET.
Assay [2] addresses FcyRIIb (UniProt P31994). Description: cell-based competitive TR-FRET.
Another assay has as its target FcγRIIa (UniProt P12318). Description: cell-based competitive TR-FRET.
Another assay addresses FcγRIIb (UniProt P31994). Description: cell-based competitive TR-FRET.
Another assay addresses FcγRIIIa (UniProt P08637). Description: cell-based competitive TR-FRET.

As to “Construct 5-FcyRIIb+ mutant (Construct 5 backbone with S267E/L328F) (from UniProt P01857 27-328; P0DOX5 223-449)”, the fold increase in binding compared to Construct 5 (SIF3) with FcyRIIb [1] was over 300 fold. For the same substance, the EC50 came to 26.7 nM in the assay with FcyRIIIa, 0.126 nM with FcyRIIa and 0.0165 nM in the assay with FcyRIIb [2].

As to IgG1, the EC50 is 502 nM with FcγRIIa, 1690 nM with FcγRIIb and 96.2 nM with FcγRIIIa.
